How the values were obtained:
[1] = target: CD3-ε (human (endogenous in HPB-ALL)) (UniProt P07766); assay: co-IP
[2] = target: the molecule itself; assay: non-reducing and reducing SDS-PAGE with Western blot

Chain of CD3-ε (human (endogenous in HPB-ALL)) (P07766 23-207): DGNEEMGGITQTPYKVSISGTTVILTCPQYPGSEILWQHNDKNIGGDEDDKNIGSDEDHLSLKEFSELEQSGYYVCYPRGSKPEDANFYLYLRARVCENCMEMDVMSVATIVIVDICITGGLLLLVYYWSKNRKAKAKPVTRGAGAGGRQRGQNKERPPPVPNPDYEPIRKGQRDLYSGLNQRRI

reduction of TRIM in the lysate after depletion of CD3 [1] [%]	Molecule	stoichiometry N [2]
67	T cell receptor interacting molecule (TRIM) (from UniProt Q6PIZ9 1-186) (natural protein)	–
–	T cell receptor interacting molecule (TRIM) (natural protein) MSGISGCPFFLWGLLALLGLALVISLIFNISHYVEKQRQDKMYSYSSDHTRVDEYYIEDTPIYGNLDDMISEPMDENCYEQMKARPEKSVNKMQEATPSAQATNETQMCYASLDHSVKGKRRKPRKQNTHFSDKDGDEQLHAIDASVSKTTLVDSFSPESQAVEENIHDDPIRLFGLIRAKREPIN	2

Source: publication PMC2212462 (The Journal of Experimental Medicine, 1998)
